Assay results published in the supplement of paper PMC10567573.

B1: KCNG1 (parent)
chain: LFVTVTAVNLSVSTLPSLREEEEQ

Variants of: B1
Assay: protein stability index of a GFP-peptide fusion (GPS, HEK-293T) (PSI 1-6); higher = more stable
Conditions: c terminus: a fixed tail appended
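Also: lentivirally expressed fusions sorted by FACS into six bins by GFP to DsRed ratio, PSI derived from sequencing read proportions per bin multiplied by bin number.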

| Variant | protein stability index |
| --- | --- |
| LFVKVTAVNLSVSTLPSLREEEEQ [T4K] | 1.64 |
| LFVEVTAVNLSVSTLPSLREEEEQ [T4E] | 1.75 |
| LFVMVTAVNLSVSTLPSLREEEEQ [T4M] | 3.06 |
| LFVGVTAVNLSVSTLPSLREEEEQ [T4G] | 2.89 |
| LFVNVTAVNLSVSTLPSLREEEEQ [T4N] | 2.45 |
| LFVLVTAVNLSVSTLPSLREEEEQ [T4L] | 1.08 |
| LFVSVTAVNLSVSTLPSLREEEEQ [T4S] | 1.49 |
| LFVYVTAVNLSVSTLPSLREEEEQ [T4Y] | 3.61 |
| LFVPVTAVNLSVSTLPSLREEEEQ [T4P] | 3.13 |
| LFVHVTAVNLSVSTLPSLREEEEQ [T4H] | 1.93 |
| LFVAVTAVNLSVSTLPSLREEEEQ [T4A] | 1.37 |
| LFVQVTAVNLSVSTLPSLREEEEQ [T4Q] | 2.71 |
| LFVDVTAVNLSVSTLPSLREEEEQ [T4D] | 3.23 |
| LFVTVAAVNLSVSTLPSLREEEEQ [T6A] | 1.69 |
| LFVTVNAVNLSVSTLPSLREEEEQ [T6N] | 2.29 |
| LFVTVPAVNLSVSTLPSLREEEEQ [T6P] | 3.96 |
| LFVTVGAVNLSVSTLPSLREEEEQ [T6G] | 1.3 |
| LFVTVDAVNLSVSTLPSLREEEEQ [T6D] | 3.21 |
| LFVTVLAVNLSVSTLPSLREEEEQ [T6L] | 1.25 |
| LFVTVEAVNLSVSTLPSLREEEEQ [T6E] | 1.79 |
| LFVTVRAVNLSVSTLPSLREEEEQ [T6R] | 1.64 |
| LFVTVSAVNLSVSTLPSLREEEEQ [T6S] | 2.27 |
| LFVTVHAVNLSVSTLPSLREEEEQ [T6H] | 1.85 |
| LFVTVTAVNHSVSTLPSLREEEEQ [L10H] | 2.44 |

| Variant | protein stability index |
| --- | --- |
| LFVTVTAVNGSVSTLPSLREEEEQ [L10G] | 2.16 |
| LFVTVTAVNFSVSTLPSLREEEEQ [L10F] | 3.38 |
| LFVTVTAVNDSVSTLPSLREEEEQ [L10D] | 2.76 |
| LFVTVTAVNCSVSTLPSLREEEEQ [L10C] | 1.45 |
| LFVTVTAVNISVSTLPSLREEEEQ [L10I] | 3.17 |
| LMVTVTAVNLSVSTLPSLREEEEQ [F2M] | 1.26 |
| LGVTVTAVNLSVSTLPSLREEEEQ [F2G] | 2.41 |
| LHVTVTAVNLSVSTLPSLREEEEQ [F2H] | 2.19 |
| LNVTVTAVNLSVSTLPSLREEEEQ [F2N] | 2.27 |
| LSVTVTAVNLSVSTLPSLREEEEQ [F2S] | 1.99 |
| LQVTVTAVNLSVSTLPSLREEEEQ [F2Q] | 2.09 |
| LLVTVTAVNLSVSTLPSLREEEEQ [F2L] | 1.95 |
| LPVTVTAVNLSVSTLPSLREEEEQ [F2P] | 4.83 |
| LTVTVTAVNLSVSTLPSLREEEEQ [F2T] | 1.25 |
| LCVTVTAVNLSVSTLPSLREEEEQ [F2C] | 1.67 |
| LKVTVTAVNLSVSTLPSLREEEEQ [F2K] | 1.72 |
| LDVTVTAVNLSVSTLPSLREEEEQ [F2D] | 3.99 |
| LAVTVTAVNLSVSTLPSLREEEEQ [F2A] | 2.27 |
| LRVTVTAVNLSVSTLPSLREEEEQ [F2R] | 2.5 |
| LYVTVTAVNLSVSTLPSLREEEEQ [F2Y] | 1.75 |
| LFVTVTAHNLSVSTLPSLREEEEQ [V8H] | 2.95 |
| LFVTVTASNLSVSTLPSLREEEEQ [V8S] | 2.77 |
| LFVTVTACNLSVSTLPSLREEEEQ [V8C] | 3.11 |
| LFVTVTADNLSVSTLPSLREEEEQ [V8D] | 2.29 |

| Variant | protein stability index |
| --- | --- |
| LFVTVTAKNLSVSTLPSLREEEEQ [V8K] | 2.15 |
| LFVTVTAQNLSVSTLPSLREEEEQ [V8Q] | 1.85 |
| LFVTVTAANLSVSTLPSLREEEEQ [V8A] | 2.02 |
| LFVTVTAENLSVSTLPSLREEEEQ [V8E] | 3.16 |
| LFVTVTARNLSVSTLPSLREEEEQ [V8R] | 2.51 |
| LFVTVTANNLSVSTLPSLREEEEQ [V8N] | 2.49 |
| LFVTVTAMNLSVSTLPSLREEEEQ [V8M] | 1.23 |
| LFVTVTAYNLSVSTLPSLREEEEQ [V8Y] | 2.15 |
| LFVTVTATNLSVSTLPSLREEEEQ [V8T] | 2.09 |
| LFVTVTAPNLSVSTLPSLREEEEQ [V8P] | 2.29 |
| IFVTVTAVNLSVSTLPSLREEEEQ [L1I] | 2.27 |
| SFVTVTAVNLSVSTLPSLREEEEQ [L1S] | 3.56 |
| MFVTVTAVNLSVSTLPSLREEEEQ [L1M] | 1.98 |
| DFVTVTAVNLSVSTLPSLREEEEQ [L1D] | 4.52 |
| PFVTVTAVNLSVSTLPSLREEEEQ [L1P] | 4.33 |
| EFVTVTAVNLSVSTLPSLREEEEQ [L1E] | 4.32 |
| NFVTVTAVNLSVSTLPSLREEEEQ [L1N] | 4.05 |
| YFVTVTAVNLSVSTLPSLREEEEQ [L1Y] | 1.97 |
| RFVTVTAVNLSVSTLPSLREEEEQ [L1R] | 3.04 |
| CFVTVTAVNLSVSTLPSLREEEEQ [L1C] | 2.1 |
| AFVTVTAVNLSVSTLPSLREEEEQ [L1A] | 1.78 |
| HFVTVTAVNLSVSTLPSLREEEEQ [L1H] | 3.62 |
| TFVTVTAVNLSVSTLPSLREEEEQ [L1T] | 2.62 |
| GFVTVTAVNLSVSTLPSLREEEEQ [L1G] | 3.23 |

| Variant | protein stability index |
| --- | --- |
| FFVTVTAVNLSVSTLPSLREEEEQ [L1F] | 1.95 |
| KFVTVTAVNLSVSTLPSLREEEEQ [L1K] | 3.84 |
| QFVTVTAVNLSVSTLPSLREEEEQ [L1Q] | 3.71 |
| LFVTVTHVNLSVSTLPSLREEEEQ [A7H] | 2.5 |
| LFVTVTCVNLSVSTLPSLREEEEQ [A7C] | 2.9 |
| LFVTVTYVNLSVSTLPSLREEEEQ [A7Y] | 3.4 |
| LFVTVTEVNLSVSTLPSLREEEEQ [A7E] | 3.03 |
| LFVTVTTVNLSVSTLPSLREEEEQ [A7T] | 1.34 |
| LFVTVTGVNLSVSTLPSLREEEEQ [A7G] | 1.5 |
| LFVTVTMVNLSVSTLPSLREEEEQ [A7M] | 2.03 |
| LFVTVTKVNLSVSTLPSLREEEEQ [A7K] | 3.01 |
| LFVTVTDVNLSVSTLPSLREEEEQ [A7D] | 2.89 |
| LFVTVTPVNLSVSTLPSLREEEEQ [A7P] | 1.8 |
| LFVTVTIVNLSVSTLPSLREEEEQ [A7I] | 4.2 |
| LFVTVTQVNLSVSTLPSLREEEEQ [A7Q] | 2.58 |
| LFVTFTAVNLSVSTLPSLREEEEQ [V5F] | 2.68 |
| LFVTWTAVNLSVSTLPSLREEEEQ [V5W] | 2.3 |
| LFVTRTAVNLSVSTLPSLREEEEQ [V5R] | 3.2 |
| LFVTETAVNLSVSTLPSLREEEEQ [V5E] | 4.46 |
| LFVTITAVNLSVSTLPSLREEEEQ [V5I] | 3.56 |
| LFVTPTAVNLSVSTLPSLREEEEQ [V5P] | 4.91 |
| LFVTQTAVNLSVSTLPSLREEEEQ [V5Q] | 3.94 |
